From patent US20220242950A1 (CANTARGIA, published 2022)

T1: recombinant hIL1RAP Domain1+2+3 (aa21-367) (human, UniProt Q9NPH3 21-367)
T1 construct: Numbering on Uniprot Q9NPH3
T1 sequence (looked up): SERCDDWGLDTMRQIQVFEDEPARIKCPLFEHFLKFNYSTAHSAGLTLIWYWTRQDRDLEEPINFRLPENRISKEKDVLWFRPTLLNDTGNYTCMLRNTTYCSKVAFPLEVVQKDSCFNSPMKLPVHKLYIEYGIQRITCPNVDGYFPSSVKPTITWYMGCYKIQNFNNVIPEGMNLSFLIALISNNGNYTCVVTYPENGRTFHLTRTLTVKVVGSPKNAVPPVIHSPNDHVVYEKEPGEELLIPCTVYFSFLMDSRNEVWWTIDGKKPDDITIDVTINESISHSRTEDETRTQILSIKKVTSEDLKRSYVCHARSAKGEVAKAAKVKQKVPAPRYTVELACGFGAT

T2: human IL1RAP on the cell surface (human, UniProt Q9NPH3 21-570)
T2 sequence (looked up): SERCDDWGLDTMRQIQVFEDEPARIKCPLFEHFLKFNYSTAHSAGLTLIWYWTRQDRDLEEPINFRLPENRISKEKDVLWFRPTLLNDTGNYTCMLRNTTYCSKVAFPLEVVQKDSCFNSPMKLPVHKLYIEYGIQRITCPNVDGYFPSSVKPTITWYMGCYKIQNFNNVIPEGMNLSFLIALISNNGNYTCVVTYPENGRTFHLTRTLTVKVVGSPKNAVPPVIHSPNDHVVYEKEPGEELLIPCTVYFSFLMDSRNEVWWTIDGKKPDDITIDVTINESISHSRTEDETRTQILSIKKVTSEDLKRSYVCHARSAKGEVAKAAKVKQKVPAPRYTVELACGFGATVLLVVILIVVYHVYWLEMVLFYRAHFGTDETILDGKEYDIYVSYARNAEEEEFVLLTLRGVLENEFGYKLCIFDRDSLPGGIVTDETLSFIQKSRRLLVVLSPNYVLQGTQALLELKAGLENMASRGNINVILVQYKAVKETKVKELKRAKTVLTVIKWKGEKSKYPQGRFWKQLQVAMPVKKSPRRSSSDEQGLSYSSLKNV

T3: recombinant mf IL1RAP aa21-367 (cynomolgus monkey (Macaca fascicularis), UniProt A0A2K5X5J5 21-367)
T3 construct: also called cynomolgus monkey IL1RAP; cyno IL1RAP
T3 sequence: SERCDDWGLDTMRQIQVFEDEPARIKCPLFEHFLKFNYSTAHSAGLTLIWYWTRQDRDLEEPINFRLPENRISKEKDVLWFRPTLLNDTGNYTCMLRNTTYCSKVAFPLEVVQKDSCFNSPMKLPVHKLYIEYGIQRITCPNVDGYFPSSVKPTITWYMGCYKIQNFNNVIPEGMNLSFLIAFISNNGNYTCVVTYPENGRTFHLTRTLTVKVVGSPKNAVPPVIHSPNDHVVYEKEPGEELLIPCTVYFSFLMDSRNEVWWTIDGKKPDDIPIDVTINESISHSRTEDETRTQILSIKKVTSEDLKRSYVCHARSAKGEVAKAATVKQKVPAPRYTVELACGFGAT


Key:
[1] = target: T1, recombinant hIL1RAP Domain1+2+3 …; experiment: binding ELISA, coated recombinant hIL1RAP aa21-367
[2] = target: T1, recombinant hIL1RAP Domain1+2+3 …; experiment: bio-layer interferometry, human IL1RAP
Procedure: Affinity measurements were done on BLItz™ Label-Free Protein Analysis System from ForteBio, using the Basic Kinetics module in the BLItz Pro 1.3.1.3 software from Molecular Devices. Protein A biosensors were hydrated in blocking buffer (PBS, 0.5% BSA, 0.05% Tween 20, pH 7.4) for minimum 10 min at room temperature before coating. Protein A biosensors were coated with antibodies by dipping the biosensors in 200 μl of antibody solution (10 μg/ml in blocking buffer) for 30 min at room temperature. The sensors were then incubated in 200 μl blocking buffer for at least 10 min before use. […] The baseline was made in blocking buffer with a duration time of 30 sec. Association was made for 120 sec in hIL1RAP followed by 120 sec dissociation in blocking buffer.
The antibodies were characterized for A) binding (ELISA analysis, human and cynomolgus monkey IL1RAP), B) inhibition of cytokine signaling (HEK-Blue™ assay), C) affinity (Bio-layer interferometry), D) size heterogeneity (SE-HPLC) and E) yield (concentration, A280). […] SE-HPLC was performed using standard procedures and PBS as running buffer. Affinity and cytokine inhibition were measured as previously described in Example 10. All 25 humanized clones were analyzed for blocking activity on IL-1α, IL-1β and IL-33 signaling while only the clones that had retained the inhibitory activity similar to chimeric 48D2 were analyzed for IL-36 inhibition.
KD values for affinity towards human IL1RAP are shown in Table 11 for the humanized 48D2 variants. Affinity was measured using bio-layer interferometry. […] See also Table 4 for a direct comparison of chimeric 48D2, humanized 48D2 variant VH5:VL4, and a humanized and de-immunized 48D2 variant VH5.GL:VL4.

[3] = target: T2, human IL1RAP on the cell surface; experiment: cell-based or functional assay
[4] = target: T3, recombinant mf IL1RAP aa21-367; experiment: binding ELISA, coated recombinant mf IL1RAP aa21-367

| Binder | IC50 [1] | Kd [2] | IC50 of IL-1α signaling (HEK-Blue assay) [3] | IC50 of IL-1β signaling (HEK-Blue assay) [3] | IC50 of IL-33 signaling (HEK-Blue assay) [3] | IC50 [4] |
| --- | --- | --- | --- | --- | --- | --- |
| h48D2 VH1:VL5 (antibody, human IgG1, kappa, L234A L235A, V domains shown, Humanized; also called VL5:VH1) VH: EVQLEESGGGLVKPGGSLRLSCAASGPSLSHFDITWVRQAPGKGLEWVSTISPGVSTYYASWAKSRFTISRDNSKNTLYLQMNSLRAEDTAVYYCARGGVGSSWKAFDLWGRGTLVTVSS VL: APVLTQSPATLEASVGDRVTITCQASESISTALAWYQQKPGQPPKLLIYKASTLPSGVPSRFSGSGSGTEFTLTISDLESDDAATYYCQQGFSSGNVHNAFGGGTEVVVKR | 0.0234 µg/mL | 31.6 nM | 0.528 µM | 20.2 nM | 74.7 nM | 0.0242 µg/mL |
| h48D2 VH3:VL2 (antibody, human IgG1, kappa, L234A L235A, V domains shown, Humanized; also called VL2:VH3) VH: EVQLLESGGGLVLPGGSLRLSCAASGPSLSHFDITWVRQAPGKGLEWVSTISPGVSTYYASWAKSRFTISRDNSKNTLYLQMSSLRAEDTAVYYCARGGVGSSWKAFDLWGLGTTVTVSS VL: QIVLTQSPATLSASVGDRVTITCQASESISTALAWYQQKPGKAPKLLIYKASTLPSGVPSRFSGSGSGTEFTLTISSLQPDDSATYYCQQGFSSGNVHNAFGQGTKLEIKR | 0.0258 µg/mL | 22.4 nM | – | 9.11 nM | 474 nM | 0.0274 µg/mL |
| h48D2 VH3:VL3 (antibody, human IgG1, kappa, L234A L235A, V domains shown, Humanized; also called VL3:VH3) VH: EVQLLESGGGLVLPGGSLRLSCAASGPSLSHFDITWVRQAPGKGLEWVSTISPGVSTYYASWAKSRFTISRDNSKNTLYLQMSSLRAEDTAVYYCARGGVGSSWKAFDLWGLGTTVTVSS VL: DILLTQTPSVVSASVGDRVTITCQASESISTALAWYQQKPGQAPRLLIYKASTLPSGVPSRFRGSGSGTDFTLTITSLQPEDFATYYCQQGFSSGNVHNAFGGGTRLEIKR | 0.0281 µg/mL | 27.4 nM | – | 10.5 nM | – | 0.0279 µg/mL |
| h48D2 VH2:VL5 (antibody, human IgG1, kappa, L234A L235A, V domains shown, Humanized; also called VL5:VH2) VH: EVQLVESGGALVQPGGSLRLSCIVSGPSLSHFDITWFRQAPGKGLEWVATISPGVSTYYASWAKSRFTISTDTSKNTLFLQMDSLRAEDTAVYYCARGGVGSSWKAFDLWGPGTLVTVSS VL: APVLTQSPATLEASVGDRVTITCQASESISTALAWYQQKPGQPPKLLIYKASTLPSGVPSRFSGSGSGTEFTLTISDLESDDAATYYCQQGFSSGNVHNAFGGGTEVVVKR | 0.0249 µg/mL | 12 nM | 0.401 µM | 5.77 nM | 183 nM | 0.0279 µg/mL |
| h48D2 VH3:VL5 (antibody, human IgG1, kappa, L234A L235A, V domains shown, Humanized; also called VL5:VH3) VH: EVQLLESGGGLVLPGGSLRLSCAASGPSLSHFDITWVRQAPGKGLEWVSTISPGVSTYYASWAKSRFTISRDNSKNTLYLQMSSLRAEDTAVYYCARGGVGSSWKAFDLWGLGTTVTVSS VL: APVLTQSPATLEASVGDRVTITCQASESISTALAWYQQKPGQPPKLLIYKASTLPSGVPSRFSGSGSGTEFTLTISDLESDDAATYYCQQGFSSGNVHNAFGGGTEVVVKR | 0.0232 µg/mL | 34.4 nM | 0.288 µM | 9.87 nM | 474 nM | 0.0279 µg/mL |
| h48D2 VH2:VL2 (antibody, human IgG1, kappa, L234A L235A, V domains shown, Humanized; also called VL2:VH2) VH: EVQLVESGGALVQPGGSLRLSCIVSGPSLSHFDITWFRQAPGKGLEWVATISPGVSTYYASWAKSRFTISTDTSKNTLFLQMDSLRAEDTAVYYCARGGVGSSWKAFDLWGPGTLVTVSS VL: QIVLTQSPATLSASVGDRVTITCQASESISTALAWYQQKPGKAPKLLIYKASTLPSGVPSRFSGSGSGTEFTLTISSLQPDDSATYYCQQGFSSGNVHNAFGQGTKLEIKR | 0.0261 µg/mL | 7.33 nM | – | 0.882 nM | 45.8 nM | 0.0292 µg/mL |
| h48D2 VH4:VL1 (antibody, human IgG1, kappa, L234A L235A, V domains shown, Humanized; also called VL1:VH4) VH: QVQLQESGPGLVKPSETLSLTCTVSGPSLSHFDITWIRQPPGKGLEWIGTISPGVSTYYASWAKSRFTISVDTSKNQFSLKLTSVTAADTATYYCARGGVGSSWKAFDLWGPGTLVTVSS VL: DIVMTQSPSSLSASVGDRVTITCQASESISTALAWYQQKPGKAPKLLIYKASTLPSGVPSRFSGSGSGTDFTLTISSLQPEDFATYYCQQGFSSGNVHNAFGGGTKVVIKR | 0.0308 µg/mL | 19.7 nM | – | 2.95 nM | – | 0.0316 µg/mL |
| h48D2 VH4:VL2 (antibody, human IgG1, kappa, L234A L235A, V domains shown, Humanized; also called VL2:VH4) VH: QVQLQESGPGLVKPSETLSLTCTVSGPSLSHFDITWIRQPPGKGLEWIGTISPGVSTYYASWAKSRFTISVDTSKNQFSLKLTSVTAADTATYYCARGGVGSSWKAFDLWGPGTLVTVSS VL: QIVLTQSPATLSASVGDRVTITCQASESISTALAWYQQKPGKAPKLLIYKASTLPSGVPSRFSGSGSGTEFTLTISSLQPDDSATYYCQQGFSSGNVHNAFGQGTKLEIKR | 0.0322 µg/mL | 13.2 nM | – | 5.55 nM | – | 0.0291 µg/mL |
| h48D2 VH2:VL3 (antibody, human IgG1, kappa, L234A L235A, V domains shown, Humanized; also called VL3:VH2) VH: EVQLVESGGALVQPGGSLRLSCIVSGPSLSHFDITWFRQAPGKGLEWVATISPGVSTYYASWAKSRFTISTDTSKNTLFLQMDSLRAEDTAVYYCARGGVGSSWKAFDLWGPGTLVTVSS VL: DILLTQTPSVVSASVGDRVTITCQASESISTALAWYQQKPGQAPRLLIYKASTLPSGVPSRFRGSGSGTDFTLTITSLQPEDFATYYCQQGFSSGNVHNAFGGGTRLEIKR | 0.0273 µg/mL | 12.1 nM | – | 3.66 nM | 1950 nM | 0.0314 µg/mL |
| h48D2 VH2:VL4 (antibody, human IgG1, kappa, L234A L235A, V domains shown, Humanized; also called VL4:VH2) VH: EVQLVESGGALVQPGGSLRLSCIVSGPSLSHFDITWFRQAPGKGLEWVATISPGVSTYYASWAKSRFTISTDTSKNTLFLQMDSLRAEDTAVYYCARGGVGSSWKAFDLWGPGTLVTVSS VL: ELVMTQSPSSVSASVGDRVTITCQASESISTALAWYQQKPGKAPKLLIYKASTLPSGVPSRFSGSGSGTDFTLTINSLQPEDFATYYCQQGFSSGNVHNAFGGGTKVEIKR | 0.0262 µg/mL | 11.2 nM | ~4130 µM | 1.36 nM | 86.4 nM | 0.0312 µg/mL |
